Results published in the supplement of paper PMC9112550, “Optimization of the antimicrobial peptide Bac7 by deep mutational scanning” (BMC Biology, 2022).

Test system: Escherichia coli TOP10
Assay: shrunken log2 fold change of peptide-encoding DNA abundance (4.5 h post-induction vs induction); higher = less antimicrobial activity (less host growth inhibition)
Settings: time post-induction: 4.5 h; library: site-saturation at positions 5, 18, 19, 20
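Note: peptides expressed intracellularly from a pBAD plasmid library in pooled LB shake-flask culture, induced with 0.3% L-arabinose, DNA abundance read by NGS, three biological replicates, DESeq2 with apeglm shrinkage.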

Row | Sequence | shrunken log2 fold change
1 | RRIRIRPPRLPRPRPRPVWFPRP | -0.125
2 | RRIRRRPPRLPRPRPRPANNPRP | -0.0615
3 | RRIRKRPPRLPRPRPRPAAEPRP | 1.12
4 | RRIRIRPPRLPRPRPRPSSPPRP | -0.746
5 | RRIRVRPPRLPRPRPRPTHGPRP | -0.235
6 | RRIRIRPPRLPRPRPRPPRLPRP | 0.256
7 | RRIRLRPPRLPRPRPRPRVIPRP | 0.0615
8 | RRIRKRPPRLPRPRPRPNVTPRP | 0.138
9 | RRIRERPPRLPRPRPRPAEDPRP | 0.0107
10 | RRIRIRPPRLPRPRPRPYLTPRP | -1.45
11 | RRIRARPPRLPRPRPRPHIYPRP | -0.805
12 | RRIRNRPPRLPRPRPRPKDGPRP | -0.00992
13 | RRIRIRPPRLPRPRPRPQHVPRP | -0.211
14 | RRIRPRPPRLPRPRPRPHSSPRP | -0.171
15 | RRIRPRPPRLPRPRPRPNHFPRP | -0.592
16 | RRIRQRPPRLPRPRPRPTYCPRP | -0.0981
17 | RRIRNRPPRLPRPRPRPFGIPRP | -0.0138
18 | RRIRHRPPRLPRPRPRPAKLPRP | -0.352
19 | RRIRCRPPRLPRPRPRPCIWPRP | -0.0143
20 | RRIRVRPPRLPRPRPRPRSAPRP | 0.258
21 | RRIRMRPPRLPRPRPRPRWVPRP | 0.4
22 | RRIRDRPPRLPRPRPRPLSRPRP | -0.113
23 | RRIRIRPPRLPRPRPRPHPLPRP | -0.516
24 | RRIRWRPPRLPRPRPRPFPNPRP | -0.138
25 | RRIRKRPPRLPRPRPRPGVEPRP | 1.09

Row | Sequence | shrunken log2 fold change
26 | RRIRPRPPRLPRPRPRPWCLPRP | -0.514
27 | RRIRPRPPRLPRPRPRPAGDPRP | 0.387
28 | RRIRKRPPRLPRPRPRPMIVPRP | 0.00271
29 | RRIRHRPPRLPRPRPRPCRAPRP | 0.0188
30 | RRIRNRPPRLPRPRPRPLSCPRP | -0.238
31 | RRIRNRPPRLPRPRPRPHKVPRP | -0.513
32 | RRIRLRPPRLPRPRPRPPGLPRP | 0.149
33 | RRIRHRPPRLPRPRPRPCGIPRP | -0.0112
34 | RRIRTRPPRLPRPRPRPGEEPRP | -0.00249
35 | RRIRVRPPRLPRPRPRPVCQPRP | 0.0508
36 | RRIRHRPPRLPRPRPRPVCRPRP | -0.3
37 | RRIRKRPPRLPRPRPRPSGGPRP | 0.255
38 | RRIRDRPPRLPRPRPRPLPRPRP | 0.391
39 | RRIRERPPRLPRPRPRPMKWPRP | -0.0404
40 | RRIRKRPPRLPRPRPRPIWLPRP | 0.00836
41 | RRIRYRPPRLPRPRPRPHTEPRP | -0.0196
42 | RRIRERPPRLPRPRPRPWHLPRP | -0.349
43 | RRIRLRPPRLPRPRPRPLLFPRP | -0.242
44 | RRIRKRPPRLPRPRPRPAAAPRP | 0.896
45 | RRIRLRPPRLPRPRPRPCFLPRP | -0.337
46 | RRIRMRPPRLPRPRPRPLMIPRP | -0.159
47 | RRIRARPPRLPRPRPRPMKAPRP | 0.0595
48 | RRIRYRPPRLPRPRPRPWACPRP | -0.263
49 | RRIRHRPPRLPRPRPRPKHNPRP | 0.196
50 | RRIRRRPPRLPRPRPRPFEWPRP | -0.0864

Row | Sequence | shrunken log2 fold change
51 | RRIRDRPPRLPRPRPRPFPVPRP | -0.0955
52 | RRIRSRPPRLPRPRPRPTSFPRP | -0.189
53 | RRIRTRPPRLPRPRPRPNVMPRP | 0.0814
54 | RRIRNRPPRLPRPRPRPFQLPRP | -0.228
55 | RRIRMRPPRLPRPRPRPWENPRP | -0.0294
56 | RRIRSRPPRLPRPRPRPGVVPRP | 0.295
57 | RRIRHRPPRLPRPRPRPIEMPRP | -0.00281
58 | RRIRCRPPRLPRPRPRPMPEPRP | 0.122
59 | RRIRERPPRLPRPRPRPCLFPRP | -0.222
60 | RRIRMRPPRLPRPRPRPVWLPRP | 3.04
61 | RRIRGRPPRLPRPRPRPFWHPRP | 0.297
62 | RRIRCRPPRLPRPRPRPRRYPRP | -0.0183
63 | RRIRYRPPRLPRPRPRPAYGPRP | 3.33
64 | RRIRLRPPRLPRPRPRPPMIPRP | -0.0218
65 | RRIRFRPPRLPRPRPRPSPSPRP | 0.12
66 | RRIRHRPPRLPRPRPRPFKQPRP | -0.0287
67 | RRIRKRPPRLPRPRPRPQFVPRP | -0.0281
68 | RRIRRRPPRLPRPRPRPKCGPRP | 0.0229
69 | RRIRHRPPRLPRPRPRPGTQPRP | -0.128
70 | RRIRGRPPRLPRPRPRPPCCPRP | 0.478
71 | RRIRWRPPRLPRPRPRPSRKPRP | 0.244
72 | RRIRRRPPRLPRPRPRPIIGPRP | 0.327
73 | RRIRDRPPRLPRPRPRPSFPPRP | -0.362
74 | RRIRYRPPRLPRPRPRPETHPRP | -0.863
75 | RRIRWRPPRLPRPRPRPRAIPRP | 0.539

Row | Sequence | shrunken log2 fold change
76 | RRIRPRPPRLPRPRPRPLFKPRP | -0.348
77 | RRIRHRPPRLPRPRPRPMGLPRP | 0.00622
78 | RRIRCRPPRLPRPRPRPAPFPRP | 0.0214
79 | RRIRQRPPRLPRPRPRPFNDPRP | 0.0753
80 | RRIRLRPPRLPRPRPRPVKYPRP | -0.446
81 | RRIRSRPPRLPRPRPRPQTKPRP | -0.0915
82 | RRIRTRPPRLPRPRPRPDVLPRP | -0.208
83 | RRIRNRPPRLPRPRPRPLKVPRP | 4.47
84 | RRIRIRPPRLPRPRPRPRMDPRP | -0.389
85 | RRIRTRPPRLPRPRPRPFTAPRP | -0.473
86 | RRIRLRPPRLPRPRPRPEEKPRP | 0.0262
87 | RRIRTRPPRLPRPRPRPNFAPRP | 0.00158
88 | RRIRSRPPRLPRPRPRPHFEPRP | -0.325
89 | RRIRARPPRLPRPRPRPSASPRP | 0.167
90 | RRIRIRPPRLPRPRPRPRIVPRP | -1.21
91 | RRIRLRPPRLPRPRPRPEPNPRP | 0.0389
92 | RRIRWRPPRLPRPRPRPVDQPRP | 0.168
93 | RRIRCRPPRLPRPRPRPSQCPRP | -0.548
94 | RRIRWRPPRLPRPRPRPRSEPRP | 0.0877
95 | RRIRSRPPRLPRPRPRPSGLPRP | 0.177
96 | RRIRYRPPRLPRPRPRPPGVPRP | 0.259
97 | RRIRNRPPRLPRPRPRPTTSPRP | -0.292
98 | RRIRCRPPRLPRPRPRPNARPRP | 0.00577
99 | RRIRERPPRLPRPRPRPMSWPRP | 0.13
100 | RRIRCRPPRLPRPRPRPKDAPRP | 0.183

Row | Sequence | shrunken log2 fold change
101 | RRIRERPPRLPRPRPRPGASPRP | 0.075
102 | RRIRFRPPRLPRPRPRPYYRPRP | 0.0478
103 | RRIRIRPPRLPRPRPRPLWQPRP | 0.0858
104 | RRIRPRPPRLPRPRPRPRKEPRP | -0.157
105 | RRIRSRPPRLPRPRPRPPHHPRP | -0.0759
106 | RRIRYRPPRLPRPRPRPCLSPRP | -1.24
107 | RRIRMRPPRLPRPRPRPVYIPRP | -0.0842
108 | RRIRARPPRLPRPRPRPGATPRP | 0.959
109 | RRIRPRPPRLPRPRPRPAVEPRP | 0.014
110 | RRIRIRPPRLPRPRPRPVEPPRP | -0.115
111 | RRIRCRPPRLPRPRPRPFCNPRP | -0.428
112 | RRIRNRPPRLPRPRPRPAREPRP | 0.191
113 | RRIRGRPPRLPRPRPRPYAVPRP | 2.53
114 | RRIRNRPPRLPRPRPRPQWQPRP | -0.0605
115 | RRIRPRPPRLPRPRPRPLPAPRP | 0.864
116 | RRIRKRPPRLPRPRPRPMHMPRP | -0.331
117 | RRIRARPPRLPRPRPRPQPFPRP | -0.0268
118 | RRIRKRPPRLPRPRPRPQPNPRP | 0.159
119 | RRIRLRPPRLPRPRPRPVHNPRP | -0.281
120 | RRIRCRPPRLPRPRPRPRCSPRP | -0.0164
121 | RRIRFRPPRLPRPRPRPAFAPRP | 0.33
122 | RRIRHRPPRLPRPRPRPTPLPRP | 0.243
123 | RRIRCRPPRLPRPRPRPLLTPRP | 0.00188
124 | RRIRDRPPRLPRPRPRPFDLPRP | -0.312
125 | RRIRSRPPRLPRPRPRPPKDPRP | -0.0903

Row | Sequence | shrunken log2 fold change
126 | RRIRKRPPRLPRPRPRPQVYPRP | -0.0614
127 | RRIRYRPPRLPRPRPRPPSFPRP | 0.0588
128 | RRIRVRPPRLPRPRPRPHLVPRP | -0.133
129 | RRIRSRPPRLPRPRPRPAFKPRP | -0.333
130 | RRIRPRPPRLPRPRPRPKGEPRP | 0.125
131 | RRIRMRPPRLPRPRPRPYGNPRP | 0.081
132 | RRIRQRPPRLPRPRPRPKCWPRP | 0.621
133 | RRIRIRPPRLPRPRPRPPGFPRP | 0.195
134 | RRIRQRPPRLPRPRPRPKDPPRP | -0.000135
135 | RRIRDRPPRLPRPRPRPQEDPRP | 0.399
136 | RRIRVRPPRLPRPRPRPAANPRP | -0.00167
137 | RRIRFRPPRLPRPRPRPLCNPRP | -0.398
138 | RRIRTRPPRLPRPRPRPQFEPRP | 0.0219
139 | RRIRGRPPRLPRPRPRPFRQPRP | 0.124
140 | RRIRYRPPRLPRPRPRPSIVPRP | -0.912
141 | RRIRMRPPRLPRPRPRPKWDPRP | 0.68
142 | RRIRDRPPRLPRPRPRPFQIPRP | 0.0155
143 | RRIRMRPPRLPRPRPRPNGVPRP | 0.194
144 | RRIRQRPPRLPRPRPRPWFIPRP | -0.302
145 | RRIRVRPPRLPRPRPRPHELPRP | 0.118
146 | RRIRTRPPRLPRPRPRPGVNPRP | -0.0412
147 | RRIRCRPPRLPRPRPRPYTAPRP | -0.595
148 | RRIRVRPPRLPRPRPRPYNQPRP | -0.844
149 | RRIRVRPPRLPRPRPRPWSMPRP | -0.014
150 | RRIRRRPPRLPRPRPRPHHEPRP | 0.0234
